Test results from patent US20080241152A1 (VEGENICS, published 2008).

Tests used:
[1] = target: the molecule itself; assay: chemical crosslinking, SDS-PAGE (homodimer)
[2] = target: T1, KDR (VEGFR-2) expressed on porcine aortic endothelial (PAE) cells (UniProt P35968 20-1356, limits assumed); assay: Scatchard analysis (125I-labelled ligand; receptor format not given, PAE/VEGFR-2 cells in the same example)
T1 construct: whole, on cells; KDR is the name of the human receptor; also called KDR/Flk-1; PAE-KDR cells
T1 sequence (P35968 20-1356 limits assumed): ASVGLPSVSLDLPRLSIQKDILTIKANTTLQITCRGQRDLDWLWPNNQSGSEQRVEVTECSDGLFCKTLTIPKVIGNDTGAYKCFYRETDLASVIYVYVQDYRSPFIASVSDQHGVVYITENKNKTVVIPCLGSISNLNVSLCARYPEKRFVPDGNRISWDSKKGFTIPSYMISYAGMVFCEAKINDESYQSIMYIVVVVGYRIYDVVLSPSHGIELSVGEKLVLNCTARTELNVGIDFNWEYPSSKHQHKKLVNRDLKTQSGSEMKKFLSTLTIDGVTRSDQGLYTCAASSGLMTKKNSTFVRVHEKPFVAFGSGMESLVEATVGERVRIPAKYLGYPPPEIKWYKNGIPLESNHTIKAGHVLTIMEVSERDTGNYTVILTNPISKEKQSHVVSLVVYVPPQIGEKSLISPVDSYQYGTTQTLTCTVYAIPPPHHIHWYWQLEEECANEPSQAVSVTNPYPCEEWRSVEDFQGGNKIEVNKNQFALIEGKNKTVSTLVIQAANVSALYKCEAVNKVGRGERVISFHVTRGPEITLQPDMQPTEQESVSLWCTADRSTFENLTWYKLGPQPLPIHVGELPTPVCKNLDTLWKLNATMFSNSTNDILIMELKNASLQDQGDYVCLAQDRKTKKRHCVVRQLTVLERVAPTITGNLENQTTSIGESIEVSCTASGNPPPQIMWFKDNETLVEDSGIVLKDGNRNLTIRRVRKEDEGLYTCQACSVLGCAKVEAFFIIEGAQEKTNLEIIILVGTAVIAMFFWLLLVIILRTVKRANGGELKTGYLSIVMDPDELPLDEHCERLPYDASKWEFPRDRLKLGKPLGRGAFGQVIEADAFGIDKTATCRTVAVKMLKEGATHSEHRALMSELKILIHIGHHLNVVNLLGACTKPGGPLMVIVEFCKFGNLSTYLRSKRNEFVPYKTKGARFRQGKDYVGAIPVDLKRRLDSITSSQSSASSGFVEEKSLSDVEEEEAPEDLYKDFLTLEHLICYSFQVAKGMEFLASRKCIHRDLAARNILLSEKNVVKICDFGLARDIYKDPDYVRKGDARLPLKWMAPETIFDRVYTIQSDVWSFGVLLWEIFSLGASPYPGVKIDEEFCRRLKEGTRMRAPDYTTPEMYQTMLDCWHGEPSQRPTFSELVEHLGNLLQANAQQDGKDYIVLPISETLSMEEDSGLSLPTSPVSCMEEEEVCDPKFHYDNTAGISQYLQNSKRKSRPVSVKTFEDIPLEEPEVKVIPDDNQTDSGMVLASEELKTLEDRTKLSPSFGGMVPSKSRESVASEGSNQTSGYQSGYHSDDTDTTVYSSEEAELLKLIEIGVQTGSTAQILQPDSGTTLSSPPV
Description: To study receptor binding, PAE/VEGFR-2 and PAE/VEGFR-3 cells were seeded into 24-well tissue culture plates (Nunclon), which had been coated with 2% gelatin in PBS. […] The binding was allowed to proceed at room temperature for 90 minutes. The plates were then transferred onto ice and washed three times with ice-cold PBS containing 0.1% BSA. The cells were then lysed in 1 M NaOH, the lysates were collected, and the radioactivity was measured using a γ-counter.

Kd [2]: 0.41 nM
B1: VEGF-C ΔNΔCHis (ligand)
chain: TEETIKFAAAHYNTEILKSIDNEWRKTQCMPREVCIDVGKEFGVATNTFFKPPCVSVYRCGGCCNSEGLQCMNTSTSYLSKTLFEITVPLSQGPKPVTISFANHTSCRCMSKLDVYRQVHSIIHHHHHH
modifications: 125I label in the tracer used for Scatchard and competition assays
notes: also called VEGF-C ΔCΔNHis; recombinantly-matured VEGF-C
binding result [1]: binds
